In paper PMC11969024 (2025):

B1: peptide HD2 (from tick evasin EVA4) / CCL8 (biotinylated, synthetic) (parent complex)
chain 1: EEDDYTAYAPLTCYFT
chain 2: QPDSVSIPITCCFNVINRKIPIQRLESYTRITNIQCPKEAVIFKTKRGKEVCADPKERWVRDSMKHLDQIFQNLKP

Variants of: B1

Compared with chain 1 Y5P, chain 1 Y5T is higher in enrichment: -6.25 log2 (difference from the parental peptide) for the first, -4.38 log2 (difference from the parental peptide) for the second.

Compared with chain 1 Y5N, chain 1 Y5V is higher in enrichment: -4.9 log2 (difference from the parental peptide) for the first, -3.14 log2 (difference from the parental peptide) for the second.

First: chain 1 Y5F
Second: chain 1 Y5D
The enrichment of the first is higher: -0.0383 log2 (difference from the parental peptide) for the first, -3.76 log2 (difference from the parental peptide) for the second.

Going from chain 1 A7C to chain 1 A7T, the enrichment rises from -9.36 log2 (difference from the parental peptide) to 0.325 log2 (difference from the parental peptide).

First: chain 1 A7Q
Second: chain 1 A7G
The enrichment of the first is higher: 0.712 log2 (difference from the parental peptide) for the first, 0.697 log2 (difference from the parental peptide) for the second.

First: chain 1 A7L
Second: chain 1 A7Y
The enrichment of the first is higher: 0.505 log2 (difference from the parental peptide) for the first, -0.0899 log2 (difference from the parental peptide) for the second.

Going from chain 1 D3T to chain 1 D3S, the enrichment rises from -3.23 log2 (difference from the parental peptide) to -2.23 log2 (difference from the parental peptide).

First: chain 1 D3H
Second: chain 1 D3R
The enrichment of the first is higher: -2.58 log2 (difference from the parental peptide) for the first, -4.97 log2 (difference from the parental peptide) for the second.

Going from chain 1 D3K to chain 1 L11A, the enrichment rises from -4.88 log2 (difference from the parental peptide) to 0.754 log2 (difference from the parental peptide).

Going from chain 1 L11C to chain 1 L11D, the enrichment falls from 1.32 log2 (difference from the parental peptide) to -2.06 log2 (difference from the parental peptide).

Compared with chain 1 L11R, chain 1 T6L is lower in enrichment: 1.57 log2 (difference from the parental peptide) for the first, -2.32 log2 (difference from the parental peptide) for the second.

Going from chain 1 T6Y to chain 1 T6H, the enrichment rises from -0.847 log2 (difference from the parental peptide) to -0.816 log2 (difference from the parental peptide).

Going from chain 1 T6W to chain 1 T6F, the enrichment falls from -0.802 log2 (difference from the parental peptide) to -4.21 log2 (difference from the parental peptide).

Compared with chain 1 T6G, chain 1 A9C is lower in enrichment: 2.04 log2 (difference from the parental peptide) for the first, -9.61 log2 (difference from the parental peptide) for the second.

First: chain 1 A9K
Second: chain 1 A9Q
The enrichment of the first is lower: -1.29 log2 (difference from the parental peptide) for the first, 0.272 log2 (difference from the parental peptide) for the second.

Compared with chain 1 A9Y, chain 1 Y14A is higher in enrichment: -4.23 log2 (difference from the parental peptide) for the first, -0.507 log2 (difference from the parental peptide) for the second.

Going from chain 1 Y14L to chain 1 Y8T, the enrichment falls from 0.559 log2 (difference from the parental peptide) to -8 log2 (difference from the parental peptide).

Compared with chain 1 Y8C, chain 1 Y8I is higher in enrichment: -9.2 log2 (difference from the parental peptide) for the first, -8.9 log2 (difference from the parental peptide) for the second.

Going from chain 1 Y8V to chain 1 E2N, the enrichment rises from -4.32 log2 (difference from the parental peptide) to -1.75 log2 (difference from the parental peptide).

Going from chain 1 E2W to chain 1 E2K, the enrichment falls from -1.39 log2 (difference from the parental peptide) to -2.67 log2 (difference from the parental peptide).

First: chain 1 E1F
Second: chain 1 E1M
The enrichment of the first is lower: -2.08 log2 (difference from the parental peptide) for the first, -0.394 log2 (difference from the parental peptide) for the second.

Compared with chain 1 E1T, chain 1 E1K is lower in enrichment: -1.11 log2 (difference from the parental peptide) for the first, -2.59 log2 (difference from the parental peptide) for the second.

Going from chain 1 E1S to chain 1 E1N, the enrichment rises from -0.455 log2 (difference from the parental peptide) to -0.349 log2 (difference from the parental peptide).

Going from chain 1 T16F to chain 1 T16Q, the enrichment rises from 0.115 log2 (difference from the parental peptide) to 1.96 log2 (difference from the parental peptide).

Compared with chain 1 T16L, chain 1 T16R is lower in enrichment: 0.738 log2 (difference from the parental peptide) for the first, 0.603 log2 (difference from the parental peptide) for the second.

Compared with chain 1 T16E, chain 1 T16M is lower in enrichment: 1.25 log2 (difference from the parental peptide) for the first, 0.502 log2 (difference from the parental peptide) for the second.

Compared with chain 1 T16S, chain 1 F15A is higher in enrichment: 1.37 log2 (difference from the parental peptide) for the first, 2.51 log2 (difference from the parental peptide) for the second.

First: chain 1 F15G
Second: chain 1 F15Q
The enrichment of the first is lower: 0.793 log2 (difference from the parental peptide) for the first, 2.57 log2 (difference from the parental peptide) for the second.

First: chain 1 F15M
Second: chain 1 F15L
The enrichment of the first is higher: 2.61 log2 (difference from the parental peptide) for the first, 1.43 log2 (difference from the parental peptide) for the second.

First: chain 1 F15D
Second: chain 1 C13I
The enrichment of the first is higher: 0.871 log2 (difference from the parental peptide) for the first, -0.427 log2 (difference from the parental peptide) for the second.

First: chain 1 C13Y
Second: chain 1 C13E
The enrichment of the first is higher: -0.338 log2 (difference from the parental peptide) for the first, -4.45 log2 (difference from the parental peptide) for the second.

First: chain 1 C13G
Second: chain 1 T12L
The enrichment of the first is lower: -1.56 log2 (difference from the parental peptide) for the first, 0.285 log2 (difference from the parental peptide) for the second.

Going from chain 1 T12E to chain 1 T12W, the enrichment falls from -0.507 log2 (difference from the parental peptide) to -1.55 log2 (difference from the parental peptide).

Going from chain 1 T12Q to chain 1 T12Y, the enrichment falls from 0.904 log2 (difference from the parental peptide) to -0.212 log2 (difference from the parental peptide).

Compared with chain 1 T12C, chain 1 P10E is lower in enrichment: -5.83 log2 (difference from the parental peptide) for the first, -7.42 log2 (difference from the parental peptide) for the second.

Going from chain 1 P10W to chain 1 P10S, the enrichment falls from -8.37 log2 (difference from the parental peptide) to -8.71 log2 (difference from the parental peptide).

Compared with chain 1 D4M, chain 1 D4Q is higher in enrichment: -3.9 log2 (difference from the parental peptide) for the first, -1.83 log2 (difference from the parental peptide) for the second.

In the case of chain 1 D4I, the enrichment is reported as -3.36 log2 (difference from the parental peptide).
